The results in this text go back to publication PMC12955206.

This series addresses myeloperoxidase (MPO) (human, UniProt P05164 49-745). Kind of series: fluorescence strand displacement.

Chain of myeloperoxidase (MPO) (P05164 49-745): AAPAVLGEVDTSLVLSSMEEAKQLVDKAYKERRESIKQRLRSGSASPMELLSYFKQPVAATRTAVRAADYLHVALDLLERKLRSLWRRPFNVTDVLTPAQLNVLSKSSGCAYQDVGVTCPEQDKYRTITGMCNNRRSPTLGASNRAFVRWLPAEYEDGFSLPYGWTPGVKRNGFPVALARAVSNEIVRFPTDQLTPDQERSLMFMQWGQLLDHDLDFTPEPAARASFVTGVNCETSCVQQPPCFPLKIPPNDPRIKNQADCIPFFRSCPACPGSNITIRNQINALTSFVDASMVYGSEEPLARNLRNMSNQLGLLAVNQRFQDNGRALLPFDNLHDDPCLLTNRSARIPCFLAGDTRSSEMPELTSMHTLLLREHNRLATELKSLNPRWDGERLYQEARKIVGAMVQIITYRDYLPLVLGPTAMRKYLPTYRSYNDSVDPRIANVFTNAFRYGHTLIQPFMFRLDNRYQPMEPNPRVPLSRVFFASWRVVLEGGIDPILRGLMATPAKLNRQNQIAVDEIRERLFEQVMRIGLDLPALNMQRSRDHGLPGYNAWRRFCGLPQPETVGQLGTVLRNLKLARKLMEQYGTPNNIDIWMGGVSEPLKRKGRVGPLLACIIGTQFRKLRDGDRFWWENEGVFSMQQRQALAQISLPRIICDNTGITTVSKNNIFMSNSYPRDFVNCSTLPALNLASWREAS

B1: AptCy3/TBHQ2 duplex (MPO aptamer with trigger strand) (mixed)
DNA 1: CACCTAATACGACTCACTATAGCGGATCCGAAACGCTATTCGGATGGGGTTCCAGATACTAGAAAGAGCAA
DNA 2: CATCCGAATAGCGTTTCGGATC
modifications: internal Cy3-dT at position 45 of the aptamer (Table S1)
On to B1, for which the binding result is given as “binds”.
